# Article PMC2584968 (Nature, 2007)
# B1: broadly neutralizing antibody b12 (antibody, V domains shown)
# VH: QVQLVQSGAEVKKPGASVKVSCQASGYRFSNFVIHWVRQAPGQRFEWMGWINPYNGNKEFSAKFQDRVTFTADTSANTAYMELRSLRSADTAVYYCARVGPYSWDDSPQDNYYMDVWGKGTTVIVSS
# VL: EIVLTQSPGTLSLSPGERATFSCRSSHSIRSRRVAWYQHKPGQAPRLVIHGVSNRASGISDRFSGSGSGTDFTLTITRVEPEDFALYYCQVYGASSYTFGQGTKLERK
# Target: HIV-1 gp120 fragment OD1 (HIV-1)
# Experiment: SPR
binder,measurement,value
B1,fold faster dissociation rate than on HXBc2 core gp120,~15 fold
